Test results published in US20120058116A1 (published 2012).

B1: Ex4-ScrL (antibody, mouse IgG2a)
heavy: QVQLVQSGSELKKPGASVKVSCKASGYTFTNYGMNWVRQAPGQGLEWMGWINTRNGKSTYVDDFKGRFVFSLDTSVSTAYLQISSLKADDTAVYYCAREGNMDGYFPFTYWGQGTLVTVSSAKTTAPSVYPLAPVCGDTTGSSVTLGCLVKGYFPEPVTLTWNSGSLSSGVHTFPAVLQSDLYTLSSSVTVTSSTWPSQSITCNVAHPASSTKVDKKIEPRGPTIKPCPPCKCPAPNLAGAPSVFIFPPKIKDVLMISLSPIVTCVVVDVSEDDPDVQISWFVNNVEVHTAQTQTHREDYNSTLRVVSALPIQHQDWMSGKEFKCKVNNKDLPAPIERTISKPKGSVRAPQVYVLPPPEEEMTKKQVTLTCMVTDFMPEDIYVEWTNNGKTELNYKNTEPVLDSDGSYFMYSKLRVEKKNWVERNSYSCSVVHEGLHNHHTTKSFSRTPGK
light: not shown
B2: GLP-1ScrL (antibody, mouse IgG2a)
heavy: B1 heavy
light: HGEGTFTSDVSSYLEGQAAKEFIAWLVKGRGSGGGGSGGGGSGDIVMTQSPSSLSASVGDRVTITCKASQNVGTNVAWYQQKPGKAPKALIYSASYRYSGVPDRFSGSGSGTDFTLTISSLQPEDFATYYCQQYNSYPLTFGGGTKVEIKRTVAAPTVSIFPPSSEQLTSGGASVVCFLNNFYPKDINVKWKIDGSERQNGVLNSWTDQDSKDSTYSMSSTLTLTKDEYERHNSYTCEATHKTSTSPIVKSFNRNEC
B3: Ex4-FGFR1cA1L (antibody, mouse IgG2a)
heavy: QVQLVQSGAEVKKPGSSVKVSCKASGQTFTGYYMHWVRQAPGQGLEWMGRIIPILGIAQKFQGRVTITADKSTSTAYMELSSLRSEDTAVYYCARGGDLGGMDVWGQGTLVTVSSAKTTAPSVYPLAPVCGDTTGSSVTLGCLVKGYFPEPVTLTWNSGSLSSGVHTFPAVLQSDLYTLSSSVTVTSSTWPSQSITCNVAHPASSTKVDKKIEPRGPTIKPCPPCKCPAPNLAGAPSVFIFPPKIKDVLMISLSPIVTCVVVDVSEDDPDVQISWFVNNVEVHTAQTQTHREDYNSTLRVVSALPIQHQDWMSGKEFKCKVNNKDLPAPIERTISKPKGSVRAPQVYVLPPPEEEMTKKQVTLTCMVTDFMPEDIYVEWTNNGKTELNYKNTEPVLDSDGSYFMYSKLRVEKKNWVERNSYSCSVVHEGLHNHHTTKSFSRTPGK
light: not shown
B4: Ex4-FGFR1cA1H (antibody, mouse IgG2a)
heavy: not shown
light: EIVLTQSPLSLPVTPGEPASISCRSSQSLRHSNGYNYLDWYLQKPGQSPQLLIYLASNRASGVPDRFSGSGSGTDFTLKISRVEAEDVGVYYCMQALQIPPTFGPGTKVDIKRTVAAPTVSIFPPSSEQLTSGGASVVCFLNNFYPKDINVKWKIDGSERQNGVLNSWTDQDSKDSTYSMSSTLTLTKDEYERHNSYTCEATHKTSTSPIVKSFNRNEC
B5: GLP1ScrH/L (antibody, mouse IgG2a)
heavy: HGEGTFTSDVSSYLEGQAAKEFIAWLVKGRGSGGGGSGGGGSGQVQLVQSGSELKKPGASVKVSCKASGYTFTNYGMNWVRQAPGQGLEWMGWINTRNGKSTYVDDFKGRFVFSLDTSVSTAYLQISSLKADDTAVYYCAREGNMDGYFPFTYWGQGTLVTVSSAKTTAPSVYPLAPVCGDTTGSSVTLGCLVKGYFPEPVTLTWNSGSLSSGVHTFPAVLQSDLYTLSSSVTVTSSTWPSQSITCNVAHPASSTKVDKKIEPRGPTIKPCPPCKCPAPNLAGAPSVFIFPPKIKDVLMISLSPIVTCVVVDVSEDDPDVQISWFVNNVEVHTAQTQTHREDYNSTLRVVSALPIQHQDWMSGKEFKCKVNNKDLPAPIERTISKPKGSVRAPQVYVLPPPEEEMTKKQVTLTCMVTDFMPEDIYVEWTNNGKTELNYKNTEPVLDSDGSYFMYSKLRVEKKNWVERNSYSCSVVHEGLHNHHTTKSFSRTPGK
light: B2 light
B6: Ex4-ScrH (antibody, mouse IgG2a, kappa)
heavy: not shown
light: DIVMTQSPSSLSASVGDRVTITCKASQNVGTNVAWYQQKPGKAPKALIYSASYRYSGVPDRFSGSGSGTDFTLTISSLQPEDFATYYCQQYNSYPLTFGGGTKVEIKRTDAAPTVSIFPPSSEQLTSGGASVVCFLNNFYPKDINVKWKIDGSERQNGVLNSWTDQDSKDSTYSMSSTLTLTKDEYERHNSYTCEATHKTSTSPIVKSFNRNEC
B7: GLP-1ScrH (antibody, mouse IgG2a, kappa)
heavy: B5 heavy
light: B6 light

Biological target: GLP-1 receptor on CHO 6CRE GLP1R cells
Assay: cell-based or functional assay

Row | Binder | Average EC50 (pM), luciferase reporter in CHO 6CRE GLP1R cells
1 | B1 | 117 pM
2 | B2 | 889 pM
3 | B3 | 109 pM
4 | B4 | 117 pM
5 | B5 | 475 pM
6 | B6 | 153 pM
7 | B7 | 485 pM
